The source of these data is patent US20050203022A1.

This experiment has as its target TGFβ1 (UniProt P01137). Briefly: cell-based or functional assay.
Sequence of UniProt P01137 (P01137 279-390 limits assumed): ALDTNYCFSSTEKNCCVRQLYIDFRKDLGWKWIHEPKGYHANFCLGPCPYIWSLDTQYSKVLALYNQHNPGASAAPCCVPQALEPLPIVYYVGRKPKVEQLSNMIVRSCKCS

The substance “recombinant rabbit TGFβRII:Fc fusion protein” gave a [3H] thymidine incorporation (CPM) of CCL64 mink lung cells with 0.1 ng/ml TGFβ1, TGFβRII:Fc at 0.02 µg/ml of 57700 CPM; a [3H] thymidine incorporation (CPM) of CCL64 mink lung cells with 0.1 ng/ml TGFβ1, TGFβRII:Fc at 0.04 µg/ml of 49900 CPM; a [3H] thymidine incorporation (CPM) of CCL64 mink lung cells with 0.1 ng/ml TGFβ1, TGFβRII:Fc at 0.08 µg/ml of 63800 CPM; a [3H] thymidine incorporation (CPM) of CCL64 mink lung cells with 0.1 ng/ml TGFβ1, TGFβRII:Fc at 0.16 µg/ml of 75100 CPM. Further, the [3H] thymidine incorporation (CPM) of CCL64 mink lung cells with 0.1 ng/ml TGFβ1, TGFβRII:Fc at 0.31 µg/ml was found to be 119000 CPM; the [3H] thymidine incorporation (CPM) of CCL64 mink lung cells with 0.1 ng/ml TGFβ1, TGFβRII:Fc at 0.62 µg/ml came to 150000 CPM; the [3H] thymidine incorporation (CPM) of CCL64 mink lung cells with 0.1 ng/ml TGFβ1, TGFβRII:Fc at 1.25 µg/ml turned out to be 168000 CPM; the [3H] thymidine incorporation (CPM) of CCL64 mink lung cells with 0.1 ng/ml TGFβ1, TGFβRII:Fc at 2.5 µg/ml turned out to be 179000 CPM. The substance further came in with a [3H] thymidine incorporation (CPM) of CCL64 mink lung cells with 0.1 ng/ml TGFβ1, TGFβRII:Fc at 5 µg/ml of 179000 CPM; a [3H] thymidine incorporation (CPM) of CCL64 mink lung cells with 0.1 ng/ml TGFβ1, TGFβRII:Fc at 10 µg/ml of 182000 CPM; an amount required to inhibit the anti-proliferative effect of 0.1 ng/ml TGFβ1 by 50% of 0.5 µg/mL.
Substance control IgG (antibody) yielded a [3H] thymidine incorporation (CPM) of CCL64 mink lung cells with 0.1 ng/ml TGFβ1, control IgG at 0.02 µg/ml of 43000 CPM; a [3H] thymidine incorporation (CPM) of CCL64 mink lung cells with 0.1 ng/ml TGFβ1, control IgG at 0.04 µg/ml of 54400 CPM; a [3H] thymidine incorporation (CPM) of CCL64 mink lung cells with 0.1 ng/ml TGFβ1, control IgG at 0.08 µg/ml of 61900 CPM; a [3H] thymidine incorporation (CPM) of CCL64 mink lung cells with 0.1 ng/ml TGFβ1, control IgG at 0.16 µg/ml of 52800 CPM. Also, the [3H] thymidine incorporation (CPM) of CCL64 mink lung cells with 0.1 ng/ml TGFβ1, control IgG at 0.31 µg/ml was 52400 CPM; the [3H] thymidine incorporation (CPM) of CCL64 mink lung cells with 0.1 ng/ml TGFβ1, control IgG at 0.62 µg/ml stood at 56700 CPM; the [3H] thymidine incorporation (CPM) of CCL64 mink lung cells with 0.1 ng/ml TGFβ1, control IgG at 1.25 µg/ml turned out to be 51400 CPM; the [3H] thymidine incorporation (CPM) of CCL64 mink lung cells with 0.1 ng/ml TGFβ1, control IgG at 2.5 µg/ml is 54400 CPM. Also, the [3H] thymidine incorporation (CPM) of CCL64 mink lung cells with 0.1 ng/ml TGFβ1, control IgG at 5 µg/ml amounted to 55100 CPM and the [3H] thymidine incorporation (CPM) of CCL64 mink lung cells with 0.1 ng/ml TGFβ1, control IgG at 10 µg/ml was found to be 53600 CPM.
